Molecular target: T1, human angiotensin-converting enzyme 2 (ACE2 protein) expressed on stably transfected PER.C6 cells (human, UniProt Q9BYF1 18-805)
T1 construct: also called human ACE2 receptor; PER.C6-ACE2
Assay: flow cytometry on ACE2-transfected PER.C6 clones

T1 sequence (Q9BYF1 18-805 limits assumed): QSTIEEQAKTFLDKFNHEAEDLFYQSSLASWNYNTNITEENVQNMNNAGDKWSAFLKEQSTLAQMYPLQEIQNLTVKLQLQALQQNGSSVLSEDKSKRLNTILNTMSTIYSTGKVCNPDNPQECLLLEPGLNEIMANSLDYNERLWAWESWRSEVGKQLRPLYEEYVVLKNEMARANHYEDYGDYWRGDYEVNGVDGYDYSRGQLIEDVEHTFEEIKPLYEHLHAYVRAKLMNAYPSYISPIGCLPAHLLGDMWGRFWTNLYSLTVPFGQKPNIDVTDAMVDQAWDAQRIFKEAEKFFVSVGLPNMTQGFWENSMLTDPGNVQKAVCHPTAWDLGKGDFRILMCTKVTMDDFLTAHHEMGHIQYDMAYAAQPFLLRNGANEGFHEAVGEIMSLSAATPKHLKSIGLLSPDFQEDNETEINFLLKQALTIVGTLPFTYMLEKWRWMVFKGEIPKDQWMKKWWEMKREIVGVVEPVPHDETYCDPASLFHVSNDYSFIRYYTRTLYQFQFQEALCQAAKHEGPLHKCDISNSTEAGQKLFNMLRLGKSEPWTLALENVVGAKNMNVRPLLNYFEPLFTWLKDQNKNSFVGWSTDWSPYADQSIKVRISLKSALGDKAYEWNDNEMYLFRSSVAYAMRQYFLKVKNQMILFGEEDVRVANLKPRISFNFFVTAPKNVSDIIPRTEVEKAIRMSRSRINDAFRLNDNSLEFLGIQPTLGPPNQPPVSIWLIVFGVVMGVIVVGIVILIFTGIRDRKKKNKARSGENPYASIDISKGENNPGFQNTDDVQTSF

B1: wild-type SARS-CoV Frankfurt 1 S318-510 fragment, myc/His-tagged (ligand)
chain: not shown
binding result: binds

— patent US20090098530A1 (CRUCELL HOLLAND B V, published 2009)
